The series deals with the molecule itself. The experiment in a line: fluorescence polarisation. (Polarisation of emitted light reports the rotation of a fluorescent probe.)

B1: HaloTag-ABS3 (human talin-1 C-terminal actin-binding domain, residues 2,293 to 2,541, as a HaloTag fusion protein) (domain or fragment)
chain: TEWVDPEDPTVIAENELLGAAAAIEAAAKKLEQLKPRAKPKEADESLNFEEQILEAAKSIAAATSALVKAASAAQRELVAQGKVGAIPANALDDGQWSQGLISAARMVAAATNNLCEAANAAVQGHASQEKLISSAKQVAASTAQLLVACKVKADQDSEAMKRLQAAGNAVKRASDNLVKAAQKAAAFEEQENETVVVKEKMVGGIAQIIAAQEEMLRKERELEEARKKLAQIRQQQYKFLPSELRDEH
B1 registered a Kd of 1.9 ± 0.2 µM.

One may read the Kd as a measure of binding affinity in units of concentration.

Values taken from PMC8915792 (Proceedings of the National Academy of Sciences of the …, 2022).
